# Experimental data taken from paper PMC7367873, “Dissecting the sequence determinants for dephosphorylation by the catalytic subunits of phosphatases PP1 and PP2A” (Nature Communications, 2020).
# B1: RPN2 (protein, UniProt P04844 23-631, looked up)
# Dolichyl-diphosphooligosacchar …: LTPTHYLTKHDVERLKASLDRPFTNLESAFYSIVGLSSLGAQVPDAKKACTYIRSNLDPSNVDSLFYAAQASQALSGCEISISNETKDLLLAAVSEDSSVTQIYHAVAALSGFGLPLASQEALSALTARLSKEETVLATVQALQTASHLSQQADLRSIVEEIEDLVARLDELGGVYLQFEEGLETTALFVAATYKLMDHVGTEPSIKEDQVIQLMNAIFSKKNFESLSEAFSVASAAAVLSHNRYHVPVVVVPEGSASDTHEQAILRLQVTNVLSQPLTQATVKLEHAKSVASRATVLQKTSFTPVGDVFELNFMNVKFSSGYYDFLVEVEGDNRYIANTVELRVKISTEVGITNVDLSTVDKDQSIAPKTTRVTYPAKAKGTFIADSHQNFALFFQLVDVNTGAELTPHQTFVRLHNQKTGQEVVFVAEPDNKNVYKFELDTSERKIEFDSASGTYTLYLIIGDATLKNPILWNVADVVIKFPEEEAPSTVLSQNLFTPKQEIQHLFREPEKRPPTVVSNTFTALILSPLLLLFALWIRIGANVSNFTFAPSTIIFHLGHAAMLGLMYVYWTQLNMFQTLKYLAILGSVTFLAGNRMLAQQAVKRTAH
# B2: PGAM5 (protein, UniProt Q96HS1 1-289, looked up)
# Serine/threonine-protein …: MAFRQALQLAACGLAGGSAAVLFSAVAVGKPRAGGDAEPRPAEPPAWAGGARPGPGVWDPNWDRREPLSLINVRKRNVESGEEELASKLDHYKAKATRHIFLIRHSQYHVDGSLEKDRTLTPLGREQAELTGLRLASLGLKFNKIVHSSMTRAIETTDIISRHLPGVCKVSTDLLREGAPIEPDPPVSHWKPEAVQYYEDGARIEAAFRNYIHRADARQEEDSYEIFICHANVIRYIVCRALQFPPEGWLRLSLNNGSITHLVIRPNGRVALRTLGDTGFMPPDKITRS
# B3: U2SURP (protein, UniProt O15042 2-1029, looked up)
# U2 snRNP-associated SURP …: ADKTPGGSQKASSKTRSSDVHSSGSSDAHMDASGPSDSDMPSRTRPKSPRKHNYRNESARESLCDSPHQNLSRPLLENKLKAFSIGKMSTAKRTLSKKEQEELKKKEDEKAAAEIYEEFLAAFEGSDGNKVKTFVRGGVVNAAKEEHETDEKRGKIYKPSSRFADQKNPPNQSSNERPPSLLVIETKKPPLKKGEKEKKKSNLELFKEELKQIQEERDERHKTKGRLSRFEPPQSDSDGQRRSMDAPSRRNRSSGVLDDYAPGSHDVGDPSTTNLYLGNINPQMNEEMLCQEFGRFGPLASVKIMWPRTDEERARERNCGFVAFMNRRDAERALKNLNGKMIMSFEMKLGWGKAVPIPPHPIYIPPSMMEHTLPPPPSGLPFNAQPRERLKNPNAPMLPPPKNKEDFEKTLSQAIVKVVIPTERNLLALIHRMIEFVVREGPMFEAMIMNREINNPMFRFLFENQTPAHVYYRWKLYSILQGDSPTKWRTEDFRMFKNGSFWRPPPLNPYLHGMSEEQETEAFVEEPSKKGALKEEQRDKLEEILRGLTPRKNDIGDAMVFCLNNAEAAEEIVDCITESLSILKTPLPKKIARLYLVSDVLYNSSAKVANASYYRKFFETKLCQIFSDLNATYRTIQGHLQSENFKQRVMTCFRAWEDWAIYPEPFLIKLQNIFLGLVNIIEEKETEDVPDDLDGAPIEEELDGAPLEDVDGIPIDATPIDDLDGVPIKSLDDDLDGVPLDATEDSKKNEPIFKVAPSKWEAVDESELEAQAVTTSKWELFDQHEESEEEENQNQEEESEDEEDTQSSKSEEHHLYSNPIKEEMTESKFSKYSEMSEEKRAKLREIELKVMKFQDELESGKRPKKPGQSFQEQVEHYRDKLLQREKEKELERERERDKKDKEKLESRSKDKKEKDECTPTRKERKRRHSTSPSPSRSSSGRRVKSPSPKSERSERSERSHKESSRSRSSHKDSPRDVSKKAKRSPSGSRTPKRSRRSRSRSPKKSGKKSRSQSRSPHRSHKKSKKNKH
# B4: ARHGEF2 (protein, UniProt Q92974 1-986, looked up)
# Rho guanine nucleotide …: MSRIESLTRARIDRSRELASKTREKEKMKEAKDARYTNGHLFTTISVSGMTMCYACNKSITAKEALICPTCNVTIHNRCKDTLANCTKVKQKQQKAALLKNNTALQSVSLRSKTTIRERPSSAIYPSDSFRQSLLGSRRGRSSLSLAKSVSTTNIAGHFNDESPLGLRRILSQSTDSLNMRNRTLSVESLIDEAEVIYSELMSDFEMDEKDFAADSWSLAVDSSFLQQHKKEVMKQQDVIYELIQTELHHVRTLKIMTRLFRTGMLEELHLEPGVVQGLFPCVDELSDIHTRFLSQLLERRRQALCPGSTRNFVIHRLGDLLISQFSGPSAEQMCKTYSEFCSRHSKALKLYKELYARDKRFQQFIRKVTRPAVLKRHGVQECILLVTQRITKYPLLISRILQHSHGIEEERQDLTTALGLVKELLSNVDEGIYQLEKGARLQEIYNRMDPRAQTPVPGKGPFGREELLRRKLIHDGCLLWKTATGRFKDVLVLLMTDVLVFLQEKDQKYIFPTLDKPSVVSLQNLIVRDIANQEKGMFLISAAPPEMYEVHTASRDDRSTWIRVIQQSVRTCPSREDFPLIETEDEAYLRRIKMELQQKDRALVELLREKVGLFAEMTHFQAEEDGGSGMALPTLPRGLFRSESLESPRGERLLQDAIREVEGLKDLLVGPGVELLLTPREPALPLEPDSGGNTSPGVTANGEARTFNGSIELCRADSDSSQRDRNGNQLRSPQEEALQRLVNLYGLLHGLQAAVAQQDTLMEARFPEGPERREKLCRANSRDGEAGRAGAAPVAPEKQATELALLQRQHALLQEELRRCRRLGEERATEAGSLEARLRESEQARALLEREAEEARRQLAALGQTEPLPAEAPWARRPVDPRRRSLPAGDALYLSFNPPQPSRGTDRLDLPVTTRSVHRNFEDRERQELGSPEERLQDSSDPDTGSEEEGSSRLSPPHSPRDFTRMQDIPEETESRDGEAVASES
# B5: FLOT2 (protein, UniProt Q14254 2-428, looked up)
# Flotillin-2: GNCHTVGPNEALVVSGGCCGSDYKQYVFGGWAWAWWCISDTQRISLEIMTLQPRCEDVETAEGVALTVTGVAQVKIMTEKELLAVACEQFLGKNVQDIKNVVLQTLEGHLRSILGTLTVEQIYQDRDQFAKLVREVAAPDVGRMGIEILSFTIKDVYDKVDYLSSLGKTQTAVVQRDADIGVAEAERDAGIREAECKKEMLDVKFMADTKIADSKRAFELQKSAFSEEVNIKTAEAQLAYELQGAREQQKIRQEEIEIEVVQRKKQIAVEAQEILRTDKELIATVRRPAEAEAHRIQQIAEGEKVKQVLLAQAEAEKIRKIGEAEAAVIEAMGKAEAERMKLKAEAYQKYGDAAKMALVLEALPQIAAKIAAPLTKVDEIVVLSGDNSKVTSEVNRLLAELPASVHALTGVDLSKIPLIKKATGVQV
# B6: SRP68 (protein, UniProt Q9UHB9 1-627, looked up)
# Signal recognition particle …: MAAEKQVPGGGGGGGSGGGGGSGGGGSGGGRGAGGEENKENERPSAGSKANKEFGDSLSLEILQIIKESQQQHGLRHGDFQRYRGYCSRRQRRLRKTLNFKMGNRHKFTGKKVTEELLTDNRYLLLVLMDAERAWSYAMQLKQEANTEPRKRFHLLSRLRKAVKHAEELERLCESNRVDAKTKLEAQAYTAYLSGMLRFEHQEWKAAIEAFNKCKTIYEKLASAFTEEQAVLYNQRVEEISPNIRYCAYNIGDQSAINELMQMRLRSGGTEGLLAEKLEALITQTRAKQAATMSEVEWRGRTVPVKIDKVRIFLLGLADNEAAIVQAESEETKERLFESMLSECRDAIQVVREELKPDQKQRDYILEGEPGKVSNLQYLHSYLTYIKLSTAIKRNENMAKGLQRALLQQQPEDDSKRSPRPQDLIRLYDIILQNLVELLQLPGLEEDKAFQKEIGLKTLVFKAYRCFFIAQSYVLVKKWSEALVLYDRVLKYANEVNSDAGAFKNSLKDLPDVQELITQVRSEKCSLQAAAILDANDAHQTETSSSQVKDNKPLVERFETFCLDPSLVTKQANLVHFPPGFQPIPCKPLFFDLALNHVAFPPLEDKLEQKTKSGLTGYIKGIFGFRS
# B7: TRIM56 (protein, UniProt Q9BRZ2 1-755, looked up)
# E3 ubiquitin-protein ligase …: MVSHGSSPSLLEALSSDFLACKICLEQLRAPKTLPCLHTYCQDCLAQLADGGRVRCPECRETVPVPPEGVASFKTNFFVNGLLDLVKARACGDLRAGKPACALCPLVGGTSTGGPATARCLDCADDLCQACADGHRCTRQTHTHRVVDLVGYRAGWYDEEARERQAAQCPQHPGEALRFLCQPCSQLLCRECRLDPHLDHPCLPLAEAVRARRPGLEGLLAGVDNNLVELEAARRVEKEALARLREQAARVGTQVEEAAEGVLRALLAQKQEVLGQLRAHVEAAEEAARERLAELEGREQVARAAAAFARRVLSLGREAEILSLEGAIAQRLRQLQGCPWAPGPAPCLLPQLELHPGLLDKNCHLLRLSFEEQQPQKDGGKDGAGTQGGEESQSRREDEPKTERQGGVQPQAGDGAQTPKEEKAQTTREEGAQTLEEDRAQTPHEDGGPQPHRGGRPNKKKKFKGRLKSISREPSPALGPNLDGSGLLPRPIFYCSFPTRMPGDKRSPRITGLCPFGPREILVADEQNRALKRFSLNGDYKGTVPVPEGCSPCSVAALQSAVAFSASARLYLINPNGEVQWRRALSLSQASHAVAALPSGDRVAVSVAGHVEVYNMEGSLATRFIPGGKASRGLRALVFLTTSPQGHFVGSDWQQNSVVICDGLGQVVGEYKGPGLHGCQPGSVSVDKKGYIFLTLREVNKVVILDPKGSLLGDFLTAYHGLEKPRVTTMVDGRYLVVSLSNGTIHIFRVRSPDS
# B8: NUFIP2 (protein, UniProt Q7Z417 1-695, looked up)
# FMR1-interacting protein …: MEEKPGQPQPQHHHSHHHPHHHPQQQQQQPHHHHHYYFYNHSHNHHHHHHHQQPHQYLQHGAEGSPKAQPKPLKHEQKHTLQQHQETPKKKTGYGELNGNAGEREISLKNLSSDEATNPISRVLNGNQQVVDTSLKQTVKANTFGKAGIKTKNFIQKNSMDKKNGKSYENKSGENQSVDKSDTIPIPNGVVTNNSGYITNGYMGKGADNDGSGSESGYTTPKKRKARRNSAKGCENLNIVQDKIMQQETSVPTLKQGLETFKPDYSEQKGNRVDGSKPIWKYETGPGGTSRGKPAVGDMLRKSSDSKPGVSSKKFDDRPKGKHASAVASKEDSWTLFKPPPVFPVDNSSAKIVPKISYASKVKENLNKTIQNSSVSPTSSSSSSSSTGETQTQSSSRLSQVPMSALKSVTSANFSNGPVLAGTDGNVYPPGGQPLLTTAANTLTPISSGTDSVLQDMSLTSAAVEQIKTSLFIYPSNMQTMLLSTAQVDLPSQTDQQNLGDIFQNQWGLSFINEPSAGPETVTGKSSEHKVMEVTFQGEYPATLVSQGAEIIPSGTEHPVFPKAYELEKRTSPQVLGSILKSGTTSESGALSLEPSHIGDLQKADTSSQGALVFLSKDYEIESQNPLASPTNTLLGSAKEQRYQRGLERNDSWGSFDLRAAIVYHTKEMESIWNLQKQDPKRIITYNEAMDSPDQ
# System: GFP-14-3-3β
# Experiment: GFP-14-3-3β co-IP with LC-MS/MS, untreated GFP-14-3-3β versus GFP control (14-3-3 interactome)
# Format: binding, human
# Conditions: log2 difference; pairwise comparison untreated vs GFP, label-free quantification, 3 replicates each
row,Molecule,"Difference (log2), untreated vs GFP"
1,B1,-1.824
2,B2,-0.7531

# Same assay, conditions: untreated vs GFP; label-free quantification
row,Molecule,"Difference (log2), untreated vs GFP"
1,B3,0.6 log2
2,B4,1.2 log2
3,B5,-0.7491 log2
4,B6,0.06806 log2
5,B7,-0.02313 log2
6,B8,0.8112 log2

# System: GFP-14-3-3β and its binding proteins
# Experiment: GFP-14-3-3β co-IP with LC-MS/MS label-free quantification, untreated versus PP1c-treated
# Parameters: species or system human
# Conditions: PP1 vs untreated; label-free quantification
row,"Difference (log2), PP1 vs untreated",Molecule
1,0.8713 log2,B3
2,0.772 log2,B4
3,0.7666 log2,B5
4,0.7891 log2,B6
5,0.8378 log2,B7
6,0.7682 log2,B8

# Same assay, conditions: log2 difference; pairwise comparison PP1 vs untreated, label-free quantification, 3 replicates each
row,"Difference (log2), PP1 vs untreated",Molecule
1,2.419,B1
2,2.342,B2
